Measured values: patent US20230287125A1 (LEPU BIOPHARMA, published 2023)

What was measured:
[1] = biological target: PD-L1 on PD-L1 target cells (Homo sapiens (Human), UniProt Q9NZQ7 19-290); assay: cell-based or functional assay
[2] = biological target: T1, human PD-L1-Fc protein (human, UniProt Q9NZQ7 19-238); assay: ELISA, antibody titrated on coated human PD-L1-Fc, OD 450nm; lower right panel
T1 construct: coating antigen of the ELISAs; also called rhPD-L1-Fc; not shown: Fc
Procedure: (§1) To evaluate antigen binding activity, the humanized antibodies were subjected to ELISA test. Briefly, microtiter plates were coated with human PD-L1-Fc protein at 0.5 μg/ml in PBS, 100 μl/well at 4° C. overnight, then blocked with 200 μl/well of 1% BSA. Three-fold dilutions of humanized antibodies starting from 10 μg/ml were added to each well and incubated for 1 hour at 37° C. The plates were washed with PBS/Tween and then incubated with mouse-anti-human IgG Fab antibody conjugated with Horse Radish Peroxidase (HRP) for 1 hour at 37° C. After washing, the plates were developed with TMB substrate and analyzed by spectrophotometer at OD 450 nm.

[3] = biological target: T2, human PD-L1-his tag protein (human, UniProt Q9NZQ7 19-238); assay: SPR (Biacore), affinity ranking, PDL1-His
T2 construct: also called human PD-L1-His protein; recombinant PD-L1 protein; not shown: his tag

[4] = biological target: T3, human PD-L1 over-expressed on CHOK1 cells (human, UniProt Q9NZQ7 19-290); assay: flow cytometry (MFI) on PDL1-CHOK1 cells; upper right panel
T3 construct: whole, on cells; also called PDL1-CHOK1 cells
Procedure: (§2) To evaluate the antigen binding property, the humanized antibodies were analyzed for their binding to PD-L1 overexpressed on mammalian cells by FACS. Briefly, PDL1-CHOK1 cells were firstly incubated with 3-fold serious diluted humanized antibodies starting at 15 μg/ml at 4° C. for 40 mins. After washed by PBS, the Alexa Fluor® 647 AffiniPure Goat Anti-Human IgG (H+L) antibody was added to each well and incubated at 4° C. for 30 mins. The MFI of Alexa Fluor® 647 was evaluated by FACSCanto.

[5] = biological target: T1, human PD-L1-Fc protein; assay: ELISA, antibody titrated on coated human PD-L1-Fc, OD 450nm; upper left panel
Procedure: as §1

[6] = biological target: T1, human PD-L1-Fc protein; assay: receptor blocking ELISA: coated human PD-L1-Fc, blocked ligand biotin-labeled human PD-1-Fc (Bio-PD1), OD 450nm; upper right panel
Procedure: (§3) Briefly, microtiter plates were coated with human PD-L1-Fc protein at 0.5 μg/ml in PBS, 100 μl/well at 4° C. overnight, then blocked with 150 μl/well of 1% BSA at 37° C. for 2 hours. […] The plates were washed with PBS/Tween and then incubated with Streptavidin-HRP for 10 mins at 37° C. After washing, the plates were developed with TMB substrate and analyzed by spectrophotometer at OD 450 nm.

[7] = biological target: T1, human PD-L1-Fc protein; assay: receptor blocking ELISA: coated human PD-L1-Fc, blocked ligand biotin-labeled human CD80-Fc (Bio-CD80), OD 450nm; upper right panel
Procedure: as §3

[8] = biological target: T2, human PD-L1-his tag protein; assay: SPR (Biacore T200), mAb captured on Protein A chip, PD-L1-his injected
Procedure: The binding of the humanized antibodies to recombinant PD-L1 protein (human PD-L1-his tag) was tested by Biacore using a capture method. […] A serial dilution of human PD-L1-his tag protein was injected over captured antibody for 2 mins at a flow rate of 30 μl/min. The antigen was allowed to dissociate for 1500 s. All the experiment were carried out on a Biacore T200.

[9] = biological target: T1, human PD-L1-Fc protein; assay: receptor blocking ELISA: coated human PD-L1-Fc, blocked ligand biotin-labeled human CD80-Fc (Bio-CD80), OD 450nm; upper left panel
Procedure: as §3

[10] = biological target: T1, human PD-L1-Fc protein; assay: receptor blocking ELISA: coated human PD-L1-Fc, blocked ligand biotin-labeled human PD-1-Fc (Bio-PD1), OD 450nm; upper left panel
Procedure: as §3

[11] = biological target: T1, human PD-L1-Fc protein; assay: ELISA, antibody titrated on coated human PD-L1-Fc, OD 450nm; upper right panel
Procedure: as §1

[12] = biological target: T3, human PD-L1 over-expressed on CHOK1 …; assay: flow cytometry (MFI) on PDL1-CHOK1 cells; lower right panel
Procedure: as §2

[13] = biological target: T3, human PD-L1 over-expressed on CHOK1 …; assay: flow cytometry (MFI) on PDL1-CHOK1 cells; upper left panel
Procedure: as §2

PD-L1 on PD-L1 target cells, sequence (Q9NZQ7 19-290 limits assumed): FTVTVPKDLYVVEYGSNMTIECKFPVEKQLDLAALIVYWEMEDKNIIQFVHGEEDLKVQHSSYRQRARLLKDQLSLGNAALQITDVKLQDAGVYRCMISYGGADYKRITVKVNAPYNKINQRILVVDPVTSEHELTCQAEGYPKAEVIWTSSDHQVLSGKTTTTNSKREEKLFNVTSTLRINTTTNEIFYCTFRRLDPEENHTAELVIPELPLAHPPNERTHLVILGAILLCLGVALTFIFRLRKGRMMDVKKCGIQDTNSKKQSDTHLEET
T3 sequence (Q9NZQ7 19-290): as the sequence (Q9NZQ7 19-290 limits assumed) above
T1 sequence (Q9NZQ7 19-238 limits assumed): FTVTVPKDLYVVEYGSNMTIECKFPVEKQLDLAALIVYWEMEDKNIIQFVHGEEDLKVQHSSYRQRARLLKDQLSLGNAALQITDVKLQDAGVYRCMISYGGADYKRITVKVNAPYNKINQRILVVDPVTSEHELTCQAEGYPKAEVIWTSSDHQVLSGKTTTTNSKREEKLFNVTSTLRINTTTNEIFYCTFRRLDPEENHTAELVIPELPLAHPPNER
T2 sequence (Q9NZQ7 19-238 limits assumed): as above

Kd [3] [nM]	koff [3] [s⁻¹]	kon [3] [M⁻¹ s⁻¹]	EC50 [5] [µg/mL]	Kd [8] [nM]	koff [8] [s⁻¹]	kon [8] [M⁻¹ s⁻¹]	Binder	also measured
–	–	–	–	–	–	–	Hu67F3G7-22, Human IgG1 (N297A)-Fc (antibody, V domains shown) VH: EVQLVQSGAEVKKPGASVKVSCKASGYTFTDFWVSWVRQAPGQGLEWMGEIYPNSGVSRYNEKFKGRVTMTVDKSISTAYMELSRLRSDDTAVYYCTKYFGYTYWFGYWGQGTLVTVSS VL: DIQMTQSPSSLSASVGDRVTITCRASKSVSTYMHWYQQKPGKQPKLLIYSASHLESGVPSRFSGSGSGTDFTLTISSLQPEDFATYYCQQSNELPVTFGGGTKVEIK	EC50, NFAT-RE-mediated luminescence, PD1 effector cells co-cultured with PD-L1 target cells [1]: 0.103 nM
0.0545	0.000107	1.97e+06	–	–	–	–	Hu67F3G7-19 (antibody, V domains shown, humanized) VH: EVQLVQSGAEVKKPGASVKVSCKASGYIFTDFWVSWVRQAPGQGLEWIGEIYPNSGVSRYNEKFKGRVTMTVDKSISTAYMELSRLRSDDTAVYYCARYFGYTYWFGYWGQGTLVTVSS VL: DTVLTQSPSLSASVGDRVTITCRASKSVSTYMHWYQQKPGKQPKLLIYSASHLESGVPSRFSGSGSGTDFTLTISSLQPEDFATYYCQQSNELPVTFGGGTKVEIK	EC50 [2]: 0.0132 µg/mL
0.0347	9.36e-05	2.7e+06	–	–	–	–	Hu67F3G7-20 (antibody, V domains shown, humanized) VH: EVQLVQSGAEVKKPGASVKVSCKASGYIFTDFWVSWVRQAPGKGLEWIGEIYPNSGVSRYNEKFKGRVTMTVDKSISTAYMELSRLRSDDTAVYYCTKYFGYTYWFGYWGQGTLVTVSS VL: DTVLTQSPSLSASVGDRVTITCRASKSVSTYMHWYQQKPGKQPKLLIYSASHLESGVPSRFSGSGSGTDFTLTISSLQPEDFATYYCQQSNELPVTFGGGTKVEIK	EC50 [2]: 0.0146 µg/mL
0.0347	9.72e-05	2.8e+06	0.0232	0.0371	7.74e-05	2.09e+06	Hu67F3G7-3 (antibody, V domains shown, humanized) VH: EVQLVQSGAEVKKPGASVKVSCKASGYIFTDFWVSWVRQAPGQGLEWIGEIYPNSGVSRYNEKFKGRVTMTVDKSISTAYMELSRLRSDDTAVYYCTKYFGYTYWFGYWGQGTLVTVSS VL: DIQMTQSPSSLSASVGDRVTITCRASKSVSTYMHWYQQKPGKAPKLLIYSASHLESGVPSRFSGSGSGTDFTLTISSLQPEDFATYYCQQSNELPVTFGGGTKVEIK	EC50 [4]: 0.167 nM; IC50 [6]: 0.158 µg/mL; IC50 [7]: 0.495 µg/mL
0.156	8.43e-05	540000	–	–	–	–	Hu67F3G7-21 (antibody, V domains shown, humanized) VH: EVQLVQSGAEVKKPGASVKVSCKASGYTFTDFWVSWVRQAPGQGLEWMGEIYPNSGVSRYNEKFKGRVTMTVDKSISTAYMELSRLRSDDTAVYYCARYFGYTYWFGYWGQGTLVTVSS VL: DIQMTQSPSSLSASVGDRVTITCRASKSVSTYMHWYQQKPGKQPKLLIYSASHLESGVPSRFSGSGSGTDFTLTISSLQPEDFATYYCQQSNELPVTFGGGTKVEIK	EC50 [2]: 0.00919 µg/mL
0.0379	9.75e-05	2.57e+06	0.0132	0.0367	7.03e-05	1.92e+06	Hu67F3G7-2 (antibody, V domains shown, humanized) VH: EVQLVQSGAEVKKPGASVKVSCKASGYTFTDFWVSWVRQAPGQGLEWMGEIYPNSGVSRYNEKFKGRVTMTVDKSISTAYMELSRLRSDDTAVYYCTKYFGYTYWFGYWGQGTLVTVSS VL: DIQMTQSPSSLSASVGDRVTITCRASKSVSTYMHWYQQKPGKAPKLLIYSASHLESGVPSRFSGSGSGTDFTLTISSLQPEDFATYYCQQSNELPVTFGGGTKVEIK	EC50 [4]: 0.108 nM; IC50 [9]: 0.282 µg/mL; IC50 [10]: 0.109 µg/mL
–	–	–	–	–	–	–	47C6A3, Human IgG1 (N297A)-Fc (antibody, V domains shown) VH: DVQLQESGPGLVKPSQSLSLTCTVTGYSITSDYAWNWIRQFPGNKLEWMGYIIYSGSTSYNPSLKSRISITRDTSKNQFFLQLNSVTTEDTATYYCARSTMIATNWFAYWGQGTLVTVSA VL: DIVMTQSHKFMSTSVVDRVSITCKASQDVSLAVAWYQQKPGQSPKLLIYWASTRHTGVPDRFTGSGSGTDFALTISSVQAEDLALYYCQQHYITPWTFGGGTKLEIK	EC50, NFAT-RE-mediated luminescence, PD1 effector cells co-cultured with PD-L1 target cells [1]: 0.15 nM
–	–	–	–	–	–	–	Hu89C10H8-7, Human IgG1 (N297A)-Fc (antibody, V domains shown) VH: EVQLVESGGGLVKPGGSLRLSCAASGFTFSNYWMTWIRQAPGKGLEWVASITNTGSSTFYPDSVKGRFTISRDNAKNSLYLQMNSLRAEDTAVYYCTRDTTIAPFDYWGQGTMVTVSS VL: DIQMTQSPSSLSASVGDRVTITCKASQNLNEYLNWYQQKPGKAPKRLIYKTNTLQAGIPSRFSGSGSGTDYTLTISSLQPEDFATYYCSQYNSGNTFGQGTKLEIK	EC50, NFAT-RE-mediated luminescence, PD1 effector cells co-cultured with PD-L1 target cells [1]: 0.214 nM
0.107	6.61e-05	615000	–	0.0935	5.31e-05	568000	Hu89C10H8-7 (antibody, V domains shown, humanized) VH: EVQLVESGGGLVKPGGSLRLSCAASGFTFSNYWMTWIRQAPGKGLEWVASITNTGSSTFYPDSVKGRFTISRDNAKNSLYLQMNSLRAEDTAVYYCTRDTTIAPFDYWGQGTMVTVSS VL: DIQMTQSPSSLSASVGDRVTITCKASQNLNEYLNWYQQKPGKAPKRLIYKTNTLQAGIPSRFSGSGSGTDYTLTISSLQPEDFATYYCSQYNSGNTFGQGTKLEIK	EC50 [11]: 0.00705 µg/mL; IC50 [6]: 0.114 µg/mL; IC50 [7]: 0.285 µg/mL; EC50 [12]: 0.1 nM
0.0954	5.94e-05	623000	0.00683	0.0962	5.41e-05	562000	Hu89C10H8-4 (antibody, V domains shown, humanized) VH: EVQLVESGGGLVKPGGSLRLSCAASGFTFSNYWMTWIRQAPGKGLEWVASITNTGSSTFYPDSVKGRFTISRDNAKSSLYLQMNSLRAEDTAVYYCTRDTTIAPFDYWGQGTMVTVSS VL: DIQMTQSPSSLSASVGDRVTITCKASQNLNEYLNWYQQKPGKAPKRLIYKTNTLQAGVPSRFSGSGSGTDYTLTISSLQPEDFATYYCSQYNSGNTFGQGTKLEIK	IC50 [9]: 0.353 µg/mL; EC50 [12]: 0.127 nM; IC50 [10]: 0.111 µg/mL
–	–	–	0.00963	0.48	0.000593	1.24e+06	Hu47C6A3-1 (antibody, V domains shown, humanized) VH: QVQLQESGPGLVKPSETLSLTCTVSGYSITSDYAWNWIRQPPGKGLEWIGYIIYSGSTSYNPSLKSRVTISVDTSKNQFSLKLSSVTAADTAVYYCARSTMIATNWFAYWGQGTLVTVSS VL: DIQMTQSPSSLSASVGDRVTITCKASQDVSLAVAWYQQKPGKAPKLLIYWASTRHTGVPSRFSGSGSGTDFTLTISSLQPEDFATYYCQQHYITPWTFGGGTKVEIK	EC50 [13]: 0.291 nM; IC50 [9]: 0.141 µg/mL; IC50 [10]: 0.0349 µg/mL
